Experimental data: patent US20130209454A1 (CALIFORNIA INSTITUTE OF TECHNOLOGY, published 2013)
Read-outs that look alike come from different tables or passages of the source.

Assays:
Experiment in all cases: cell-based or functional assay
[1] = biological target: HIV-1 Env of strain TRO.11 (HIV-1)
[2] = biological target: HIV-1 Env of strain AC10.0.29 (HIV-1)
[3] = biological target: HIV-1 Env of strain CAP45.2.00.G3 (HIV-1)
[4] = biological target: HIV-1 Env of strain T257-31 (HIV-1)
[5] = biological target: HIV-1 Env of strain ZM214M.PL15 (HIV-1)
[6] = biological target: HIV-1 Env of strain QH0692.42 (HIV-1)
[7] = biological target: HIV-1 Env of strain SC422661.8 (HIV-1)
[8] = biological target: HIV-1 Env of strain ZM249M.PL1 (HIV-1)
[9] = biological target: HIV-1 Env of strain Du156.12 (HIV-1)
[10] = biological target: HIV-1 Env of strain ZM197M.PB7 (HIV-1)
[11] = biological target: HIV-1 Env of strain ZM135M.PL10a (HIV-1)
[12] = biological target: HIV-1 Env of strain ZM109F.PB4 (HIV-1)
[13] = biological target: HIV-1 Env of strain ZM214M.PL15 (HIV-1); remark: listed apart in the source
[14] = biological target: HIV-1 Env of strain ZM53M.PB12 (HIV-1)
[15] = biological target: HIV-1 strain CAP45.2.00.G3 envelope (gp120) (HIV-1)
[16] = biological target: HIV-1 strain SC422661.8 envelope (gp120) (HIV-1)
[17] = biological target: HIV-1 strain ZM214M.PL15 envelope (gp120) (HIV-1)
[18] = biological target: HIV-1 strain AC10.0.29 envelope (gp120) (HIV-1)
[19] = biological target: HIV-1 strain T257-31 envelope (gp120) (HIV-1)
[20] = biological target: HIV-1 strain TRO.11 envelope (gp120) (HIV-1)
[21] = biological target: HIV-1 strain QH0692.42 envelope (gp120) (HIV-1)
[22] = biological target: HIV-1 strain 6535.3 envelope (gp120) (HIV-1)
[23] = biological target: HIV-1 strain SC422661.8 envelope (gp120) (HIV-1); remark: listed apart in the source
[24] = biological target: HIV-1 strain P0402_c2_11 envelope (gp120) (HIV-1)
[25] = biological target: HIV-1 strain 0815.v3.c3 envelope (gp120) (HIV-1)
[26] = biological target: HIV-1 strain CAP210.2.00.E8 envelope (gp120) (HIV-1)
[27] = biological target: HIV-1 strain 62357_14_D3_4589 envelope (gp120) (HIV-1)
[28] = biological target: HIV-1 strain 6811.v7.c18 envelope (gp120) (HIV-1)
[29] = biological target: HIV-1 strain P1981_C5_3 envelope (gp120) (HIV-1)
[30] = biological target: HIV-1 strain Ce1176_A3 envelope (gp120) (HIV-1)
[31] = biological target: HIV-1 strain 231965.c01 envelope (gp120) (HIV-1)
[32] = biological target: HIV-1 strain 3415.v1.c1 envelope (gp120) (HIV-1)
[33] = biological target: HIV-1 strain 3817.v2.c59 envelope (gp120) (HIV-1)
[34] = biological target: HIV-1 strain Du422.1 envelope (gp120) (HIV-1)
[35] = biological target: HIV-1 strain C2101.c01 envelope (gp120) (HIV-1)
[36] = biological target: HIV-1 strain 3301.v1.c24 envelope (gp120) (HIV-1)
[37] = biological target: HIV-1 strain 6545.v4.c1 envelope (gp120) (HIV-1)
[38] = biological target: HIV-1 strain T251-18 envelope (gp120) (HIV-1)
[39] = biological target: HIV-1 strain 3016.v5.c45 envelope (gp120) (HIV-1)
[40] = biological target: HIV-1 strain 3103.v3.c10 envelope (gp120) (HIV-1)
[41] = biological target: HIV-1 strain Du172.17 envelope (gp120) (HIV-1)
[42] = biological target: HIV-1 strain QH0692.42 envelope (gp120) (HIV-1); remark: listed apart in the source

B1: NIH45-46 IgG (antibody, V domains shown)
VH: QVRLSQSGGQMKKPGESMRLSCRASGYEFLNCPINWIRLAPGRRPEWMGWLKPRGGAVNYARKFQGRVTMTRDVYSDTAFLELRSLTSDDTAVYFCTRGKYCTARDYYNWDFEHWGRGAPVTVSS
VL: EIVLTQSPATLSLSPGETAIISCRTSQSGSLAWYQQRPGQAPRLVIYSGSTRAAGIPDRFSGSRWGADYNLSISNLESGDFGVYYCQQYEFFGQGTKVQVDI
neutralization IC50 [1]: 1.9 µg/mL | neutralization IC50 [2]: 0.9 µg/mL | neutralization IC50 [3]: > 50 µg/mL | neutralization IC50 [4]: 0.5 µg/mL | neutralization IC50 [5]: 0.3 µg/mL | neutralization IC50 [6]: 0.7 µg/mL | neutralization IC50 [7]: 0.05 µg/mL | neutralization IC50 [8]: 0.02 µg/mL | neutralization IC50 [9]: 0.01 µg/mL | neutralization IC50 [10]: 0.14 µg/mL | neutralization IC50 [11]: 0.36 µg/mL | neutralization IC50 [12]: 0.22 µg/mL | neutralization IC50 [13]: 0.05 µg/mL | neutralization IC50 [14]: 0.65 µg/mL

B2: NIH45-46 IgG (antibody, V domains shown)
VH: B1 VH
VL: B1 VL
neutralization IC50 [15]: > 50 µg/mL | neutralization IC50 [16]: 0.05 µg/mL | neutralization IC50 [17]: 0.5 µg/mL | neutralization IC50 [18]: 0.9 µg/mL | neutralization IC50 [19]: 0.5 µg/mL | neutralization IC50 [20]: 1.9 µg/mL | neutralization IC50 [21]: 0.7 µg/mL | neutralization IC80 [22]: 0.54 µg/mL | neutralization IC80 [23]: 0.13 µg/mL | neutralization IC80 [24]: 0.214 µg/mL | neutralization IC80 [25]: 0.052 µg/mL | neutralization IC80 [26]: > 50 µg/mL | neutralization IC80 [27]: 0.19 µg/mL | neutralization IC80 [28]: 0.113 µg/mL | neutralization IC80 [29]: 0.24 µg/mL | neutralization IC80 [30]: 3.17 µg/mL | neutralization IC80 [31]: 0.126 µg/mL | neutralization IC80 [32]: 0.086 µg/mL | neutralization IC80 [33]: > 50 µg/mL | neutralization IC80 [34]: > 50 µg/mL | neutralization IC80 [35]: 31.4 µg/mL | neutralization IC80 [36]: 0.033 µg/mL | neutralization IC80 [37]: > 50 µg/mL | neutralization IC80 [38]: 3.68 µg/mL | neutralization IC80 [39]: > 50 µg/mL | neutralization IC80 [40]: 6.15 µg/mL | neutralization IC80 [41]: > 50 µg/mL | neutralization IC80 [42]: 1.71 µg/mL
